The target in this test is H3K4AK9me2 peptide. Put plainly: ITC. Background: Isothermal titration calorimetry measures the heat released or taken up as one component is titrated into another.

B1: SAWADEE domain of atSHH1 (residues 125-258) (domain or fragment)
chain: ADLAFEAKSARDYAWYDVSSFLTYRVLRTGELEVRVRFSGFDNRHDEWVNVKTSVRERSIPVEPSECGRVNVGDLLLCFQEREDQALYCDGHVLNIKRGIHDHARCNCVFLVRYELDNTEESLGLERICRRPEE
Molecule B1 showed a fold weaker affinity than for the H3K9me2 peptide of 30 fold.

Values taken from paper PMC4119789.
